According to patent US11426447B2, “Neuregulin for the treatment of tumors of the nervous system” (LEIBNIZ-INSTITUT FUR …, priority 2016, dated 2022):

Key:
[1] = Serum levels of rhNRG1 after intraperitoneal injection (Nrg1 ELISA kit); assay type: in vivo, mice; details: single intraperitoneal injection, 10 μg per kg body weight, pooled blood
Description: To measure peripheral exposure of rhNRG1 in mice, up to 50 μl blood was sampled from mice for four consecutive days via bilateral retro-orbital plexus and facial veins. For serum preparation, collected blood was allowed to clot at room temperature for 1 hour before spinning for 20 minutes at 2,000 g.
Blood serum levels of rhNRG1 before and after intraperitoneal injection were measured using a commercially available kit according to manufacturer's instructions (#ab100614; Abcam; USA).
(§1) Crush injury-induced schwannoma formation was provoked in 2-month-old mice. Subsequently, administration of rhNRG1 was performed both systemically (by intraperitoneal injection) and locally (by rhNRG1-containing absorbable collagen sponges (ACS)). Vehicle saline solution was given to control animals. In order to assess the bioavailability of intraperitoneally injected rhNRG1 (10 μg per kg body weight), rhNRG1 serum levels were evaluated. Strikingly, rhNRG1 levels reached a peak 2 days after injection (FIG. 1B). […] A significant decline in body weight at the chosen dosage was, however, not observed (FIG. 1C).

[2] = Body weight and tolerability of systemically treated animals; assay type: in vivo, mice
Description: A, Schematic representation of the protocol used to assess the efficacy of rhNRG1 treatment on schwannoma growth after experimental sciatic nerve crush injury. B, Serum levels of rhNRG1 after single intraperitoneal injections of 10 μg rhNRG1 per kg body weight measured in pooled blood (n=4 animals; median). C, Body weight of animals receiving (genotype and treatment as indicated) was determined over 13 weeks.
as §1

[3] = tested on: crush injury-induced schwannoma; experiment: In situ tumour size quantification: sciatic nerve diameter after crush injury-induced schwannoma formation; assay type: in vivo, Nf2flox;P0-Cre;Nefh-Cre mutant mice; details: KO mice
Source text: Unilateral injuries of sciatic nerves were accomplished according to a previously described method (Bauder and Ferguson, 2012). In brief, 8 to 10 week old mice were anesthetized using 2% isoflurane in 100% oxygen. Fur was then removed from one hind limb. After an appropriate incision of the skin, the gluteal musculature was separated in order to reveal the right sciatic nerve. Using haemostatic forceps (Ultra Fine Haemostat; #13021-12; tip width 0.6 mm; Fine Science Tools; Germany), the nerve was crushed once by the application of a defined pressure for 20 s. The locking mechanism of the haemostatic forceps with a series of interlocking teeth ensured reproducibility and standardization of crush injury. Finally, both the gluteal musculature and skin incision were sutured using appropriate surgical suture material.
An EGF domain containing 7 kDa protein of recombinant human Neuregulin 1 (“rhNRG1”) was purchased from Reprokine (#RKQ02297; USA). Protein was firstly resolved in ddH2O and further diluted in phosphate-buffered saline (PBS) to reach target concentrations. […]
Sciatic nerve crush injury was conducted on WT mice and Nf2flox;P0-Cre;Nefh-Cre mutant mice as described above. […] Moreover by determining the myelin thickness, structural integrity of non-crushed, intact nerves was assessed (FIG. 7).

intact nerves = experiment: Morphometric analysis of nerve sections: myelin thickness of non-crushed, intact nerves; assay type: in vivo, wildtype mice; details: long-term treatment over 8 weeks, vs PBS control
Description: Analysis of axon calibre, myelination thickness and solidity factor was conducted on semi-thin and ultra-thin sections of the sciatic nerve removed from transcardially perfused mice. Mice were perfused with a solution containing 3% paraformaldehyde and 3% glutaraldehyde in 0.1 M phosphate buffer (pH 7.4). Sections were postfixed for 1 h and kept in fixative including 3% sucrose. Sections were obtained from the distal part of the sciatic nerve. Sectioning and staining were performed as described. Images of toluidine blue-stained semi-thin sections were taken using an Axioskop 2 MOT (Carl Zeiss, Germany) equipped with a 100× immersion oil objective and an Olympus XC50 digital camera (Olympus, Germany). Standardized settings for camera sensitivity, resolution (2,576×1,932 pixels) and brightness of illumination were used for all micrographs. Ultra-thin sections were analysed with an electron microscope (EM910, Carl Zeiss) equipped with an integrated TRS 1K digital camera (Carl Zeiss). Image analysis was conducted with ImageJ version 1.48u. RGB colour images obtained from semi-thin sections were split into single channels and the green channel was chosen for measurements. The image was contrasted using the auto function. Axon and myelin were circumscribed manually by the freehand selection tool. Based on the measured areas, the thicknesses of the axons and myelin sheaths were calculated. […]

[4] = tested on: tumorlets (neoplastic Schwann cell proliferation areas); experiment: Quantification of tumorlets in Nf2flox;Postn-Cre mice; assay type: in vivo; details: 20 μg rhNRG1 per kg bodyweight ip for three months, vs control animals
Source text: PFA-fixed tissue blocks derived from rhNRG1 and control treated animals containing lower spinal cord, lumbar dorsal root ganglions (DRG) as well as distal nerve proportions were cut in 4 planes per animal. Photographs were subsequently scanned and analyzed using the NanoZoomer Digital Pathology Software. The total area occupied by peripheral nerve tissue and dorsal root ganglion (DRG) tissue in mm^2 was quantified separately. Likewise, neoplastic tissue regions were identified and quantified separately for peripheral nerves and DRG areas. All quantitative analyses of tumorlets in Nf2flox;Postn-Cre mice were performed in blinded manner.
The in vivo results on the efficacy of rhNRG1 on schwannoma growth was tested as described in Example 1 however in a another animal model of schwannoma disease, the well-established Nf2flox;Postn-Cre mouse line, wherein a conditional Nf2 gene deletion is facilitated by the Periostin-Cre driver line (Nf2flox;Postn-Cre).
In this model all animals spontaneously develop spinal, peripheral and cranial nerve schwannomas over time (Gehlhausen et al., 2015). 4-month-old mutant Nf2flox;Postn-Cre animals as well as their corresponding wildtype littermates were either treated with saline control injections or intraperitoneal rhNRG1 administration for three months (FIG. 8A). […]

B1: rhNRG1: EGF domain containing 7 kDa protein of recombinant human Neuregulin 1, purchased from Reprokine (#RKQ02297) (protein, listed as Homo sapiens)
chain: SHLVKCAEKEKTFCVNGGECFMVKDLSNPSRYLCKCPNEFTGDRCQNYVMASFYKHLGIEF
time of peak rhNRG1 serum level after injection [1]: 2 days
tolerability ([2]; 10 μg/kg, Nf2flox;P0-Cre;Nefh-Cre animals): well tolerated
significant decline in body weight ([2]; systemic treatment at chosen dosage (10 μg/kg ip every other day), weighed weekly over 13 weeks): not observed
sciatic nerve diameter 3 months after crush injury ([3]; local collagen sponges soaked in 0.2 mg/ml rhNRG1, KO vehicle ACS about 1.8 mm, WT about 1 mm): about 1.4 mm
sciatic nerve diameter 3 months after crush injury ([3]; systemic (ip) rhNRG1, KO vehicle about 2 mm, WT vehicle about 1 mm): about 1.5 mm
impact on the microarchitecture of intact nerves (myelin thickness, g-ratio) (intact nerves): no obvious impact
tumorlet fraction (area occupied by tumorlets relative to total nerve tissue area) [4]: significant reduction
